# Residue numbers refer to the chain shown, from its start. Numbers in names are those of the source.
# T1: CD134 expressed on the cell surface of HT1080_OX40 cells (human, UniProt P43489 29-277)
# T1 sequence (looked up): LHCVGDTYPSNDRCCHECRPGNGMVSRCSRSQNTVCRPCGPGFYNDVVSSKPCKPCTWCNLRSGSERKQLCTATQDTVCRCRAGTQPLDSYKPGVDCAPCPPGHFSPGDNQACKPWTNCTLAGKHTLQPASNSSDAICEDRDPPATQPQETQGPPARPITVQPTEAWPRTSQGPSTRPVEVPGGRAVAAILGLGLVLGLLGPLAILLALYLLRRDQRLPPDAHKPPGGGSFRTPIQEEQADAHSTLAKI
# T2: CD134 protein (His-tagged, Sino Biological Inc. 10481-H08H) (human, UniProt P43489 29-216)
# T2 construct: bought protein coated on ELISA plates; also called OX40; TNFRSF4; not shown: His tag
# T2 sequence (looked up): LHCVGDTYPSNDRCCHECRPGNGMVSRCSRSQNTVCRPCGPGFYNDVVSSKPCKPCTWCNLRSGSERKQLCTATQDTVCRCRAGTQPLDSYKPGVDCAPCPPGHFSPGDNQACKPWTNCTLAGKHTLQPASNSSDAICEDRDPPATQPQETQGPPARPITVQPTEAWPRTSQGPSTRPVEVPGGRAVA
# B1: P018.S.02.A.H03 (antibody, V domains shown)
# VH: QSLEESGGRLVTPGGSLTLTCTVSGIDLSSYGMGWVRQAPGKGLEWIGTISYGGSTFYANWVKGRFTISKTSTTVDLKVTSLTTEDAATYFCAREVPYWSLWGQGTLVTVSS
# VL: AYDMTQTPASVAAAVGGTVTIKCQASQSIGSDLSWYQQKRGQPPKLLIYDASTLASGVPSRFKGSGSGTEFTLTISDVQSADAATVYCQQDYSYRNVDNTFGGGTEVVVK
# notes: V regions on human Ig constant parts; also called AB134_3
# B2: P018.S.11.A.D03 (antibody, V domains shown)
# VH: QEQLKETGGGLVQPGGSLTLSCKASGFDFSSGYMSWVRQAPGKGLEWIGYIDPVFGSTYYASWVNGRFAISSHNAQNTLYLQLNSLTAADTATYFCARDLRAFYSGWGGINLWGPGTLVTVSS
# VL: AAVLTQTPSPVSAAVGGTVTIKCQSSQIVVNNNFLSWYQQKPGQPPKLLIYDASNLASGVPDRFSGSGSGTQFTLTISGVQSDDAATYYCLGGYDDDAENAFGGGTEVVVQ
# notes: V regions on human Ig constant parts; also called AB134_30
# B3: P018.S.05.A.F05 (as anti-CD134 antibody) (antibody, V domains shown)
# VH: QSVEESGGRLVTPGTPLTLTCTVSGFSLSNYYMTWVRQAPGKGLEYIGIIGSGVSTYYANWAKGRFTISKASSTTVDLKMTSPTTEDTATYFCARDMYVGNWGDWGLWGQGTLVTVSS
# VL: AYDMTQTPASVEVAVGGTVTIKCQASQSISNNLNWYQQKPGQPPKLLIYSVSTLASGVPSRFKGSGSGTDYTLTISGVESVDAATYYCQQDYRIGDLDSAFGGGTEVVVK
# notes: V regions on human Ig constant parts; also called AB134_16
# B4: P018.S.13.A.A05 (antibody, V domains shown)
# VH: QSLEESGGRLVTPGTPLTLTCTASGFSLSRYDMSWVRQAPGKGLEYIGVISSSGGTNYANWAKGRFTISKTSTTVDLKITSPTTEDTATYFCAREGDYWDFNLWGPGTLVTVSS
# VL: AQVLTQTPSSVSAAVGGTVTINCQASQSISNLLAWYQQKPGQPPKLLIYGASTLASGVPSRFSGSGSGTEFTLTISDLESDDAATYYCAGGFPGLDTVAAFGGGTEAVVT
# notes: V regions on human Ig constant parts; also called AB137_4
# B5: P018.S.14.A.A04 (antibody, V domains shown)
# VH: QSLEESGGRLVTPGTPLTLTCTVSGFSLNDYWMSWVRQAPGKGLEWIGYIDVGGSLYYASWAKGRFTISRTSTTVDLKMTSLTTEDTATYFCARGGLTYGFDLWGPGTLVTVSS
# VL: DIVMTQTPASVSEPVGGTVTINCQASEDISSYLAWYQQKPGQRPKRLIYGASDLASGVPSRFSASGSGTEYALTISDLESADAATYYCHYYATISGLGVAFGGGTEVVVK
# B6: P018.S.14.A.G03 (antibody, V domains shown)
# VH: QSLEESGGRLVTPGTPLTLTCTVSGIDLSSYHMCWVRQAPGKGLEYIGYIAYGGNTYYANWAKGRFTISKTSTTVDLRITSPTTEDTATYFCARGYSEDSYWGLWGPGTLVTVSS
# VL: AYDMTQTPASVEAAVGGTVTIKCQASQNIENYLAWYQQKPGQPPKLLIYDTSKLTSGVPSRFSGSGSGTDFTLTISGVQSDDAATYYCQQDYGIIFVDNIFGGGTEVVVK
# B7: P018.S.13.A.A06 (antibody, V domains shown)
# VH: QSVEESGGRLVTPGTPLTLTCTASGFTISDFHVTWVRQAPGKGLEWIGTIITSASTTAYATWARGRFTISKSSTTVNLKIVSPTTEDTATYFCARSTYTDTSGYYFDFWGQGTLVTVSS
# VL: AQVLTQTASPVSAAVGGTVIINCQSSQSIYNGNRLSWYQQKPGQPPKLLIYSASTLASGVSSRFKGSGSGTQFTLAISDVQSDDAATYYCLGSYDCDSADCFAFGGGTEVVVE
# B8: P018.S.08.A.A04 (antibody, V domains shown)
# VH: QSVEESGGRLVTPGTPLTLTCTVSGFSLSSYAVSWVRQAPGKGLEWIGVIWNNGATHYATWAKGRFTISKASTTVDLKVTSPTTEDTATYFCARSANDAWSTYSDLWGQGTLVTVSS
# VL: DIVMTQTPASVEAAVGGTVTIKCQASQTITNYLSWYQQKPGQPPKLLIYKASTLTSGVSSRFKGSGSGTEFTLTISDLESDDAATYYCQNYYYGSSSGYGFVFGGGTEVVVK
# B9: P018.S.08.A.F03 (antibody, V domains shown)
# VH: QSVEESGGRLVTPGTPLTLTCTASGFTISSYHMIWVRQAPGEGLEWIGDIYGGTATTDYASWAKGRFTISKTSTTVDLKMTSLTTEDTATYFCARARYSGGSYANYVFNLWGQGTLVTVSS
# VL: DIVMTQTPASVEAAVGGTVTIKCQASQSISSYLAWYQQKPGQPPKLLIYRTSTLESGVPSRFKGSGSGTEFTLTISDLESADAATYYCQGYDWSSSNRYDNTFGGGTEVVVK
# B10: P018.S.13.A.G03 (antibody, V domains shown)
# VH: QSLEESGGRLVTPGTPLTLTCTASGFSLSSYDVSWVRQAPGKGLEYIGFIGSDGSAHYATWVKGRFTISKTSTTVDLKITSPTTEDTATYFCARDWNDYWAHDLWGPGTLVTVSS
# VL: AQVLTQTTSPVSAAVGGTVTINCQASQIVTSKSALSWYQQKPGQPPRLLIYKASTLASGVPSRFSGSGSGTQFTLTISDLESDDAATYYCAGGYYNSGDLNPFGGGTEVVVK
# B11: P018.S.08.A.E03 (antibody, V domains shown)
# VH: QSVEESGGRLVTPGTPLTLTCTVSGFSLTYYAVTWVRQPPGKGLEWIGVIYDNGATAFATWAKGRFTMSKNSTTVALKVTSPTTEDTATYFCARSANNAWSTYSNLWGQGTLVTVSS
# VL: DIVMTQTPSSVSAAVGGTVTINCQASEDISSYLSWYQQKLGQPPKLLIYKASTLESGVPSRFKGSGSGTEYTLTISDLESDDAATYYCQSYYSGSISGYGFVFGGGTGVVVK
# B12: P018.S.13.A.G04 (antibody, V domains shown)
# VH: B4 VH with R30S, V49Y, G55N, N57Y, N60S, G64S
# VL: B4 VL with P43R, K45R, G50R, S63K, D81E, V98G, A100T
# B13: P018.S.13.A.A05 (antibody, V domains shown)
# VH: B4 VH
# VL: B4 VL
# B14: P018.S.13.A.C02 (antibody, V domains shown)
# VH: QSVEESGGRLVTPGTPLTLTCTVSGFSLSSYAMSWVRQAPGKGLEWIGIISTSGITYYASWAKGRFTISKTSTMVDLKITSPTTEDTATYFCARLNGFDDYVRYFDFWGLGTLVTVSS
# VL: AIELTQTPSSVSAAVGGTVTINCQASESIASNLAWYQQKPGQPPKLLIYAASYLASGVPSRFKGSGSGTEYTLTISGVQSADAATYYCQSAFYVSSSDNAFGGGTEVVVK
# B15: P018.S.14.A.H01 (antibody, V domains shown)
# VH: QSVEESGGRLVTPGTPLTLTCTVSGFSLSDYYMTWVRQAPGKGLEYIGIMSGSGSTYYASWAKGRFTISKTSSTTLELKITSPTTEDTAIYFCARDGDYAGWGYATGAFDPWGPGTLVTVSS
# VL: AAVLTQTPSPVSAAVGGTVTISCQASQSVVGNSLLSWFQKKPGQPPKLLIYSASSLASGVPSRFKGSGSGTQFTLTISDLESDDAATYYCTGRYNSDTDTFVFGGGTEVVVK
# B16: P018.S.14.A.D06 (antibody, V domains shown)
# VH: QSVEESGGRLVTPGTPLTLTCTVSGFSLSTYAMIWVRQAPGKGLEWIGVVYDNGYISHATWVKGRFTISKTSTTVGLEITSPTTEDTATYFCARSADGSWSTYFNLWGQGTLVTVSS
# VL: DIVMTQTPASVEAAVGGTVTIKCQASESISNYLAWYQQKPGQPPKLLIYKASTLASGVSSRFKGSGSGTEFTLTISDLESADAATYYCQTNYCCSSSDNGFAFGGGTEVVVK
# Molecular target: T1, CD134 expressed on the cell surface of …
# Assay: cell-based or functional assay
# For Functional assay Cross-linked by F(ab′)2 fragment IL-8 in this document: test concentration or dose not given here.
# For Functional assay IL-8 in this document: test concentration or dose not given here.
Binder,Functional assay Cross-linked by F(ab′)2 fragment IL-8 [abs. corr.],Functional assay IL-8 [abs. corr.]
B1,1.95,2.56
B2,1.86,2.24
B3,1.71,0.187

# Molecular target: T3, CD137 expressed on the cell surface of HT1080_4-1BB cells (human, UniProt Q07011 24-255)
# T3 sequence (Q07011 24-255): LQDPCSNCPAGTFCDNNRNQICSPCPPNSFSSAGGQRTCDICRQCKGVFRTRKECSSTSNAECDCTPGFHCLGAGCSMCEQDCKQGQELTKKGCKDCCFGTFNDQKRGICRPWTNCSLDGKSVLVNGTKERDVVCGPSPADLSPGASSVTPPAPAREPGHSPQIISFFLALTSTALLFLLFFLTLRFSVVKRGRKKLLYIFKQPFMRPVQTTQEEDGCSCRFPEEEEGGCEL
# Assay: cell-based or functional assay
Binder,Functional assay Cross-linked by F(ab′)2 fragment IL-8 [abs. corr.],Functional assay IL-8 [abs. corr.]
B4,2.57,0.559

# Molecular target: T1, CD134 expressed on the cell surface of …
# Assay: cell-based or functional assay
# Remark: another data set of the same source
row,Binder,"EC 50 (IL-8 release, cross-linked) [µg/mL]"
1,B1,0.215
2,B2,0.176
3,B3,7.12

# Molecular target: human 4-1BB (CD137) (human, UniProt Q07011 24-255)
# Sequence (Q07011 24-255): as above
# Assay: cell-based or functional assay
row,Binder,"EC 50 [ng/mL] of agonistic function (IL-8 release from CD137-overexpressing HT1080 cells, antibody cross-linked by F(ab')2 goat anti-human IgG) [ng/mL]"
1,B5,6790
2,B6,3500
3,B7,7790
4,B8,5150
5,B9,2710
6,B10,4780
7,B11,4960
8,B12,255000
9,B13,3720
10,B14,3500
11,B15,5820
12,B16,10200

# Molecular target: T1, CD134 expressed on the cell surface of …
# Assay: HT1080_OX40 cells, imaging; also: test concentration or dose not given here
row,Binder,Cellular binding assay [RFU]
1,B1,198
2,B2,482
3,B3,392

# Molecular target: T3, CD137 expressed on the cell surface of …
# Assay: HT1080_4-1BB cells, imaging; also: test concentration or dose not given here
row,Binder,Cellular binding assay [RFU]
1,B4,0

# Molecular target: T2, CD134 protein (His-tagged, Sino …)
# Assay: ELISA, coated His-tagged CD134; also: test concentration or dose not given here
row,Binder,ELISA [abs. corr.]
1,B1,0.468
2,B2,1.99
3,B3,2.41

# Molecular target: T4, CD137 protein (His-tagged, Sino Biological Inc. 10041-H08H) (human, UniProt Q07011 24-186)
# T4 construct: bought protein coated on ELISA plates; also called 4-1BB; TNFRSF9; not shown: His tag
# Assay: ELISA, coated His-tagged CD137; also: test concentration or dose not given here
row,Binder,ELISA [abs. corr.]
1,B4,0.687

# — US20210253725A1 (BIONTECH, published 2021)
